Measured values: paper PMC9365671

T1: full-length human KIF5B-mScarlet-StrepII (human), P33176
T1 chain: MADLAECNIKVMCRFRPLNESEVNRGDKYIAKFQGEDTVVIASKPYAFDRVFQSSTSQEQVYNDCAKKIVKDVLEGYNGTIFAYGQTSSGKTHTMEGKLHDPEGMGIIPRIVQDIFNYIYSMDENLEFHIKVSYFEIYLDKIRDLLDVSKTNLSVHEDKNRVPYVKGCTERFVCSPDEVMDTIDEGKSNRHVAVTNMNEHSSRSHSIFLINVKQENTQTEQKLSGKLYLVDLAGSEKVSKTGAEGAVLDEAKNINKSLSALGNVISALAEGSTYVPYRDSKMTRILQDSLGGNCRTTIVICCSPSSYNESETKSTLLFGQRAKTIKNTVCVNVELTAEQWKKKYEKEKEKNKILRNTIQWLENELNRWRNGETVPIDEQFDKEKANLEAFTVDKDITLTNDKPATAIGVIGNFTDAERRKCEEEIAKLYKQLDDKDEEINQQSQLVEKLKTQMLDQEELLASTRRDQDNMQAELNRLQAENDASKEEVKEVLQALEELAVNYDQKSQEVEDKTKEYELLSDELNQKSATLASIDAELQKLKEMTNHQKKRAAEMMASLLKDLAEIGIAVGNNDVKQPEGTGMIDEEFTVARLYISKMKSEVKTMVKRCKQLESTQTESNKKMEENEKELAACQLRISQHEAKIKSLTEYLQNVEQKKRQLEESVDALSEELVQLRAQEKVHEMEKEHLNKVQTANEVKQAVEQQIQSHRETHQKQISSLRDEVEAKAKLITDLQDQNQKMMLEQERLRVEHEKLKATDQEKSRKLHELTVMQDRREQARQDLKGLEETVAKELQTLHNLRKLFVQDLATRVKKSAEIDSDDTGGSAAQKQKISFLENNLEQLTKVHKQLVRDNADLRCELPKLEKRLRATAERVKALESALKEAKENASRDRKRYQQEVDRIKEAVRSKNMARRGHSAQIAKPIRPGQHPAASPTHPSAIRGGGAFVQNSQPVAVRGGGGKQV

T2: full-length human KIF5A-mScarlet-StrepII (human), Q12840
T2 chain: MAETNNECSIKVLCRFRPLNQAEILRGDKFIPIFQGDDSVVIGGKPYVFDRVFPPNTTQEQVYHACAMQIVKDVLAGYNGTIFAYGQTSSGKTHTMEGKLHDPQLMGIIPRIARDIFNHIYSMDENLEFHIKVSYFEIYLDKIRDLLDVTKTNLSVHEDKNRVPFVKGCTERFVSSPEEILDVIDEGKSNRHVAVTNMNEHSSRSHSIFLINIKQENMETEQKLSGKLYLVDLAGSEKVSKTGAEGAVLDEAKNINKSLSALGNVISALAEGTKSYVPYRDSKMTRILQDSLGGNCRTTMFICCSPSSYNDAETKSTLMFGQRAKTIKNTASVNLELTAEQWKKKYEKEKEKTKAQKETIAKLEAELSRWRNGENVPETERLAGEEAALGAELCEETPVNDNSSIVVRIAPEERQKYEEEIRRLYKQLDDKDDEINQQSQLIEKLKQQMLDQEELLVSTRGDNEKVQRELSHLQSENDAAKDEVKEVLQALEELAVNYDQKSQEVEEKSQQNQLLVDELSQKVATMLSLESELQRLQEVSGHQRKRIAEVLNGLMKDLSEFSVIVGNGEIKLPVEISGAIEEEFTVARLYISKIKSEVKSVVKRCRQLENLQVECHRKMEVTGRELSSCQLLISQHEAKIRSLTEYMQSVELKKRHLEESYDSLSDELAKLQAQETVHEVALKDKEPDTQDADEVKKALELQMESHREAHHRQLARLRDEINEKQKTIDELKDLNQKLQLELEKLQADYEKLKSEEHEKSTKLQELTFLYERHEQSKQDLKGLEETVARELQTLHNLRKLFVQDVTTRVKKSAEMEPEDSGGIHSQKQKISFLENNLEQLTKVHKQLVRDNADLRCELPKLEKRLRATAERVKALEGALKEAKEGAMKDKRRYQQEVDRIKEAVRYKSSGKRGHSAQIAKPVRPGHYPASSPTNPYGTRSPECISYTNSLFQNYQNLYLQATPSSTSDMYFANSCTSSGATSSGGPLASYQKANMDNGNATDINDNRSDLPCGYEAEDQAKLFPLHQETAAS


Columns and labels:
Details in all cases: remark: other sources report otherwise
[1] = target: T1, full-length human …; assay: SEC-MALS; purified full-length KIF5 alone; BioSep SEC-s4000 column, GF150 buffer (25 mM HEPES-KOH, 150 mM KCl, 2 mM MgCl2)
[2] = target: T2, full-length human …; assay: as above
[3] = target: T2, full-length human …; assay: single-molecule fluorescence brightness (TIRF microscopy); brightness of motile KIF5A-mScarlet molecules on microtubules, ATP

| stoichiometry N [1] | stoichiometry N [2] | stoichiometry N [3] | Binder |
| --- | --- | --- | --- |
| 2 |  |  | full-length human KIF5B-mScarlet-StrepII, P33176 1-963 (natural protein) MADLAECNIKVMCRFRPLNESEVNRGDKYIAKFQGEDTVVIASKPYAFDRVFQSSTSQEQVYNDCAKKIVKDVLEGYNGTIFAYGQTSSGKTHTMEGKLHDPEGMGIIPRIVQDIFNYIYSMDENLEFHIKVSYFEIYLDKIRDLLDVSKTNLSVHEDKNRVPYVKGCTERFVCSPDEVMDTIDEGKSNRHVAVTNMNEHSSRSHSIFLINVKQENTQTEQKLSGKLYLVDLAGSEKVSKTGAEGAVLDEAKNINKSLSALGNVISALAEGSTYVPYRDSKMTRILQDSLGGNCRTTIVICCSPSSYNESETKSTLLFGQRAKTIKNTVCVNVELTAEQWKKKYEKEKEKNKILRNTIQWLENELNRWRNGETVPIDEQFDKEKANLEAFTVDKDITLTNDKPATAIGVIGNFTDAERRKCEEEIAKLYKQLDDKDEEINQQSQLVEKLKTQMLDQEELLASTRRDQDNMQAELNRLQAENDASKEEVKEVLQALEELAVNYDQKSQEVEDKTKEYELLSDELNQKSATLASIDAELQKLKEMTNHQKKRAAEMMASLLKDLAEIGIAVGNNDVKQPEGTGMIDEEFTVARLYISKMKSEVKTMVKRCKQLESTQTESNKKMEENEKELAACQLRISQHEAKIKSLTEYLQNVEQKKRQLEESVDALSEELVQLRAQEKVHEMEKEHLNKVQTANEVKQAVEQQIQSHRETHQKQISSLRDEVEAKAKLITDLQDQNQKMMLEQERLRVEHEKLKATDQEKSRKLHELTVMQDRREQARQDLKGLEETVAKELQTLHNLRKLFVQDLATRVKKSAEIDSDDTGGSAAQKQKISFLENNLEQLTKVHKQLVRDNADLRCELPKLEKRLRATAERVKALESALKEAKENASRDRKRYQQEVDRIKEAVRSKNMARRGHSAQIAKPIRPGQHPAASPTHPSAIRGGGAFVQNSQPVAVRGGGGKQV |
|  | 4 | 4 | full-length human KIF5A-mScarlet-StrepII, Q12840 1-1032 (natural protein) MAETNNECSIKVLCRFRPLNQAEILRGDKFIPIFQGDDSVVIGGKPYVFDRVFPPNTTQEQVYHACAMQIVKDVLAGYNGTIFAYGQTSSGKTHTMEGKLHDPQLMGIIPRIARDIFNHIYSMDENLEFHIKVSYFEIYLDKIRDLLDVTKTNLSVHEDKNRVPFVKGCTERFVSSPEEILDVIDEGKSNRHVAVTNMNEHSSRSHSIFLINIKQENMETEQKLSGKLYLVDLAGSEKVSKTGAEGAVLDEAKNINKSLSALGNVISALAEGTKSYVPYRDSKMTRILQDSLGGNCRTTMFICCSPSSYNDAETKSTLMFGQRAKTIKNTASVNLELTAEQWKKKYEKEKEKTKAQKETIAKLEAELSRWRNGENVPETERLAGEEAALGAELCEETPVNDNSSIVVRIAPEERQKYEEEIRRLYKQLDDKDDEINQQSQLIEKLKQQMLDQEELLVSTRGDNEKVQRELSHLQSENDAAKDEVKEVLQALEELAVNYDQKSQEVEEKSQQNQLLVDELSQKVATMLSLESELQRLQEVSGHQRKRIAEVLNGLMKDLSEFSVIVGNGEIKLPVEISGAIEEEFTVARLYISKIKSEVKSVVKRCRQLENLQVECHRKMEVTGRELSSCQLLISQHEAKIRSLTEYMQSVELKKRHLEESYDSLSDELAKLQAQETVHEVALKDKEPDTQDADEVKKALELQMESHREAHHRQLARLRDEINEKQKTIDELKDLNQKLQLELEKLQADYEKLKSEEHEKSTKLQELTFLYERHEQSKQDLKGLEETVARELQTLHNLRKLFVQDVTTRVKKSAEMEPEDSGGIHSQKQKISFLENNLEQLTKVHKQLVRDNADLRCELPKLEKRLRATAERVKALEGALKEAKEGAMKDKRRYQQEVDRIKEAVRYKSSGKRGHSAQIAKPVRPGHYPASSPTNPYGTRSPECISYTNSLFQNYQNLYLQATPSSTSDMYFANSCTSSGATSSGGPLASYQKANMDNGNATDINDNRSDLPCGYEAEDQAKLFPLHQETAAS |
